Assay results taken from patent US20230330196A1, “IMMUNOSUPPRESSIVE AGENTS” (The Trustees of Columbia University in the City of New York, priority 2020, published 2023).

Target: T1, PD-1H (Homo sapiens, UniProt Q9H7M9)
T1 construct: Flag (N); expressed in transfected cells; host or cells: HEK293
Test: Co-immunoprecipitation of c-myc tagged MMP-13 constructs with Flag-PD-1H in HEK293 cells
Type: binding
Conditions: HEK293 cells co-transfected with Flag-PD-1H; IP with anti-c-myc; FIG. 5A
Method: To identify key binding domains between PD-1H and MMP-13, a series of truncated deletion mutants was tested. The MMP-13 zymogen has a pro-peptide domain (aa 20-103) that maintains latency, a catalytic domain (aa 103-268) containing the catalytic zinc-binding motif, and a hinge linker region (aa 269-280) that connects the catalytic domain region with the C-terminal hemopexin domain (aa 281-471).
WCL were analyzed as input. […].

B1: Hem: MMP-13 truncation mutant containing the hemopexin domain (delta aa 37-267) (protein)
chain: LPLPSGGDEDDLSEEDLPGDEDPNPKHPKTPDKCDPSLSLDAITSLRGETMIFKDRFFWRLHPQQVDAELFLTKSFWPELPNRIDAAYEHPSHDLIFIFRGRKFWALNGYDILEGYPKKISELGLPKEVKKISAAVHFEDTGKTLLFSGNQVWRYDDTNHIMDKDYPRLIEEDFPGIGDKVDAVYEKNGYIYFFNGPIQFEYSIWSNRIVRVMPANSILWC
modifications: left off: small tags and cut ends
binding to PD-1H (co-IP): retained only a fraction of the wild-type binding activity
